Patent US20070009989A1, “Synthetic heparanase molecules and uses thereof” (priority 2003, published 2007)

B1: GS6: single chain heparanase, subunits linked via (GS)6 spacer, protein SEQ ID NO:26 (protein)
chain: MLLRSKPALPPPLMLLLLGPLGPLSPGALPRPAQAQDVVDLDFFTQEPLHLVSPSFLSVTIDANLATDPRFLILLGSPKLRTLARGLSPAYLRFGGTKTDFLIFDPKKEGSGSGSGSGSGSKKFKNSTYSRSSVDVLYTFANCSGLDLIFGLNALLRTADLQWNSSNAQLLLDYCSSKGYNISWELGNEPNSFLKKADIFINGSQLGEDFIQLHKLLRKSTFKNAKLYGPDVGQPRRKTAKMLKSFLKAGGEVIDSVTWHHYYLNGRTATREDFLNPDVLDIFISSVQKVFQVVESTRPGKKVWLGETSSAYGGGAPLLSDTFAAGFMWLDKLGLSARMGIEVVMRQVFFGAGNYHLVDENFDPLPDYWLSLLFKKLVGTKVLMASVQGSKRRKLRVYLHCTNTDNPRYKEGDLTLYAINLHNVTKYLRLPYPFSNKQVDKYLLRPLGPHGLLSKSVQLNGLTLKMVDDQTLPPLMEKPLRPGSSLGLPAFSYSFFVIRNAKVAACI
modifications: hep GS-A6
B2: hyaluro: single chain heparanase with grafted loop region from hyaluronidase, protein SEQ ID NO:27 (protein)
chain: MLLRSKPALPPPLMLLLLGPLGPLSPGALPRPAQAQDVVDLDFFTQEPLHLVSPSFLSVTIDANLATDPRFLILLGSPKLRTLARGLSPAYLRFGGTKTDFLIFDPKKESTFEERSYWAFKDKTPEWPYQEQLLLREHYQKKFKNSTYSRSSVDVLYTFANCSGLDLIFGLNALLRTADLQWNSSNAQLLLDYCSSKGYNISWELGNEPNSFLKKADIFINGSQLGEDFIQLHKLLRKSTFKNAKLYGPDVGQPRRKTAKMLKSFLKAGGEVIDSVTWHHYYLNGRTATREDFLNPDVLDIFISSVQKVFQVVESTRPGKKVWLGETSSAYGGGAPLLSDTFAAGFMWLDKLGLSARMGIEVVMRQVFFGAGNYHLVDENFDPLPDYWLSLLFKKLVGTKVLMASVQGSKRRKLRVYLHCTNTDNPRYKEGDLTLYAINLHNVTKYLRLPYPFSNKQVDKYLLRPLGPHGLLSKSVQLNGLTLKMVDDQTLPPLMEKPLRPGSSLGLPAFSYSFFVIRNAKVAACI
modifications: hep Hya1
B3: 106: single chain heparanase linking the 8 and 50 kDa subunits directly, protein SEQ ID NO:17 (protein)
chain: MLLRSKPALPPPLMLLLLGPLGPLSPGALPRPAQAQDVVDLDFFTQEPLHLVSPSFLSVTIDANLATDPRFLILLGSPKLRTLARGLSPAYLRFGGTKTDFLIFDPKKFKNSTYSRSSVDVLYTFANCSGLDLIFGLNALLRTADLQWNSSNAQLLLDYCSSKGYNISWELGNEPNSFLKKADIFINGSQLGEDFIQLHKLLRKSTFKNAKLYGPDVGQPRRKTAKMLKSFLKAGGEVIDSVTWHHYYLNGRTATREDFLNPDVLDIFISSVQKVFQVVESTRPGKKVWLGETSSAYGGGAPLLSDTFAAGFMWLDKLGLSARMGIEVVMRQVFFGAGNYHLVDENFDPLPDYWLSLLFKKLVGTKVLMASVQGSKRRKLRVYLHCTNTDNPRYKEGDLTLYAINLHNVTKYLRLPYPFSNKQVDKYLLRPLGPHGLLSKSVQLNGLTLKMVDDQTLPPLMEKPLRPGSSLGLPAFSYSFFVIRNAKVAACI
modifications: hep 106
B4: GS3: single chain heparanase, subunits linked via (GS)3 glycine-serine spacer, protein SEQ ID NO:21 (protein)
chain: MLLRSKPALPPPLMLLLLGPLGPLSPGALPRPAQAQDVVDLDFFTQEPLHLVSPSFLSVTIDANLATDPRFLILLGSPKLRTLARGLSPAYLRFGGTKTDFLIFDPKKEGSGSGSKKFKNSTYSRSSVDVLYTFANCSGLDLIFGLNALLRTADLQWNSSNAQLLLDYCSSKGYNISWELGNEPNSFLKKADIFINGSQLGEDFIQLHKLLRKSTFKNAKLYGPDVGQPRRKTAKMLKSFLKAGGEVIDSVTWHHYYLNGRTATREDFLNPDVLDIFISSVQKVFQVVESTRPGKKVWLGETSSAYGGGAPLLSDTFAAGFMWLDKLGLSARMGIEVVMRQVFFGAGNYHLVDENFDPLPDYWLSLLFKKLVGTKVLMASVQGSKRRKLRVYLHCTNTDNPRYKEGDLTLYAINLHNVTKYLRLPYPFSNKQVDKYLLRPLGPHGLLSKSVQLNGLTLKMVDDQTLPPLMEKPLRPGSSLGLPAFSYSFFVIRNAKVAACI
modifications: hep GS3
B5: 109: single chain heparanase linking the 8 and 50 kDa subunits directly, protein SEQ ID NO:20 (protein)
chain: MLLRSKPALPPPLMLLLLGPLGPLSPGALPRPAQAQDVVDLDFFTQEPLHLVSPSFLSVTIDANLATDPRFLILLGSPKLRTLARGLSPAYLRFGGTKTDFLIFDPKKEKKFKNSTYSRSSVDVLYTFANCSGLDLIFGLNALLRTADLQWNSSNAQLLLDYCSSKGYNISWELGNEPNSFLKKADIFINGSQLGEDFIQLHKLLRKSTFKNAKLYGPDVGQPRRKTAKMLKSFLKAGGEVIDSVTWHHYYLNGRTATREDFLNPDVLDIFISSVQKVFQVVESTRPGKKVWLGETSSAYGGGAPLLSDTFAAGFMWLDKLGLSARMGIEVVMRQVFFGAGNYHLVDENFDPLPDYWLSLLFKKLVGTKVLMASVQGSKRRKLRVYLHCTNTDNPRYKEGDLTLYAINLHNVTKYLRLPYPFSNKQVDKYLLRPLGPHGLLSKSVQLNGLTLKMVDDQTLPPLMEKPLRPGSSLGLPAFSYSFFVIRNAKVAACI
modifications: hep 109
B6: GS4: single chain heparanase, W118-(GS)4-E143 spacer, protein SEQ ID NO:25 (protein)
chain: MLLRSKPALPPPLMLLLLGPLGPLSPGALPRPAQAQDVVDLDFFTQEPLHLVSPSFLSVTIDANLATDPRFLILLGSPKLRTLARGLSPAYLRFGGTKTDFLIFDPKKESTFEERSYWGSGAGSGAEWPYQEQLLLREHYQKKFKNSTYSRSSVDVLYTFANCSGLDLIFGLNALLRTADLQWNSSNAQLLLDYCSSKGYNISWELGNEPNSFLKKADIFINGSQLGEDFIQLHKLLRKSTFKNAKLYGPDVGQPRRKTAKMLKSFLKAGGEVIDSVTWHHYYLNGRTATREDFLNPDVLDIFISSVQKVFQVVESTRPGKKVWLGETSSAYGGGAPLLSDTFAAGFMWLDKLGLSARMGIEVVMRQVFFGAGNYHLVDENFDPLPDYWLSLLFKKLVGTKVLMASVQGSKRRKLRVYLHCTNTDNPRYKEGDLTLYAINLHNVTKYLRLPYPFSNKQVDKYLLRPLGPHGLLSKSVQLNGLTLKMVDDQTLPPLMEKPLRPGSSLGLPAFSYSFFVIRNAKVAACI
modifications: hep GS-A4

Key:
[1] = Heparanase enzymatic activity of constructs transiently expressed in COS-7 cells (radiometric or fluorimetric assay); type: biochemical; conditions: for stability of the construct (conclusion from expression level): expression barely detectable by Western blot; for enzymatic activity: extracted by heparin affinity chromatography
Description: Cells were grown in Dulbecco's MEM (Gibco BRL, Gaithersburg, Md.). All constructs were cloned into the eukaryotic expression plasmid pcDNA3 (Invitrogen). A vector encoding the reporter gene β-lactamase (BLA) was co-transfected in order to check transfection efficiency of each construct. […] Transient transfection of COS7 cells was obtained using the fuGENE 6 Transfection Reagent (Roche, Basel, Switzerland) according to manufacturer's instructions. 24 hours after transfection, efficiency was assessed by fluorimetric detection of BLA-positive cells. 96 hours after transfection, cells were harvested and resuspended in lysis buffer (50 mM Tris-HCl pH 7.5, 150 mM NaCl, 0.5% Triton) containing Complete protease inhibitor cocktail (Roche). The lysis was carried out on ice for 30 minutes. After centrifugation at 14000 rpm for 30 minutes, the heparanase containing supernatants were recovered and partially purified as outlined below.
Heparanase constructs were expressed in COS-7 cells, which are devoid of endogenous heparanse activity, by transient transfection. Heparanase was extracted from cell lysates by heparin affinity chromatography and quantified on Western blots. In parallel, heparanase enzymatic activity was determined with either the radiometric or fluorimetric assay (FIG. 5). From Western blot analysis, we concluded that wt heparanase as well as the single chain constructs GS3 and hyaluro are efficiently expressed and processed, whereas constructs 106 and GS4 are expressed but not processed. Expression levels of constructs 109 and GS6 were extremely low and barely detectable by Western blot analysis. […] Since GS3 and hyaluro are active but are processed despite the changes that were introduced in the cleavage sites we can not draw any conclusion with respect to the intrinsic activity of the precursors. We therefore proceeded with the expression in cells that are devoid of the enzyme(s) responsible for heparanase processing.
(§1) Cell lysates from COS7 or Sf9 insect cells were passed through 500 μl Heparin Sepharose CL-6B (Amersham, Piscataway, N.J.) by gravity. The column was washed with 2 ml of lysis buffer, then with 2 ml of 50 mM Tris-HCl pH 7.5, 500 mM NaCl, and heparanase was eluted with 2 ml of 50 mM Tris-HCl pH 7.5, 1 M NaCl and concentrated about 5 fold with a Biomax-30K centrifugal concentrator (Millipore, Bedford, Mass.). 10% glycerol was added and the protein was stored in aliquots at −80° C. Protein concentration was determined using the BIO-RAD Protein Assay.
(§2) This assay is based on the degradation of FITC-HS monitored by HPLC size exclusion chromatography. 8 μl of purified heparanase was incubated with 5 μL of FITC-HS in a 50 μl of 50 mM MES pH 6, 10% glycerol (heparanase activity buffer, HAB). The reaction mixture was incubated at room temperature for a defined period and the reaction was stopped by the addition of 50 μg of heparin. The mixture was then filtered using Ultrafree-MC centrifugal filter Devices (Millipore). 20 μl were injected on a Superdex 75™ (Pharmacia Biotech) column equilibrated in buffer 50 mM Hepes pH 7.5 150 mM Na2SO4 and connected to a Merck-Hitachi HPLC system. Fluorescent heparan sulfate degradation products were detected by an L-7485 fluorescence detector. Heparanase activity was assessed by monitoring the increase in lower molecular weight heparan sulfate species compared with the intact FITC-HS and quantified by peak area integration.
This assay is based on the degradation of tritiated heparan sulfate immobilized on microplate. Each well of the Reacti-Bind Streptavidin High Binding Capacity Coated Plates was pre-treated according to manufacturer's instructions. Initially, different amounts of each fraction of tritiated, biotinylated heparan sulfate obtained after PD-10 desalting column were added to each well (in duplicate) in PBS to a final volume of 100 μl. […]

[2] = Heparanase enzymatic activity of constructs expressed in Sf9 insect cells (fluorimetric assay); type: biochemical; conditions: for pH and ionic strength dependence of the enzymatic activity: compared with wild type enzyme from COS-7 cells or HCT-116 cells; for enzymatic activity of the unprocessed purified protein: expressed in Sf9 cells, compared with correctly processed wild type enzyme from COS-7 cells
Description: Recombinant baculoviruses containing the heparanase constructs were generated using the Bac to Bac expression system (Invitrogen). Recombinant baculoviruses were used to infect Sf9 insect cells (50×10^6 cells per T-175 flask) grown in Grace's insect medium with 10% FBS. Cells were collected 48 h after infection, and centrifuged at 500 g for 5 minutes. Cell lysates were prepared as above, except the lysis buffer contained 500 mM NaCl instead of the 150 mM used for COS7, which improved protein quantity in the soluble fraction.
The proteins were expressed in Sf9 cells and purified by heparin affinity chromatography.
as §1, §2

Row | Molecule | stability of the construct (conclusion from expression level) [1] | pH and ionic strength dependence of the enzymatic activity [2] | enzymatic activity of the unprocessed purified protein [2] | enzymatic activity [1]
1 | B1 | probably unstable | – | – | –
2 | B2 | – | undistinguishable from the wild type recombinant enzyme | highly active | showed enzymatic activity
3 | B3 | – | – | – | inactive
4 | B4 | – | undistinguishable from the wild type recombinant enzyme | highly active | showed enzymatic activity
5 | B5 | probably unstable | – | – | –
6 | B6 | – | – | – | inactive
